This note sets out measurements from a protein production outcome set (Wang et al. 2014).

This data set is described as follows: label from the status in PepcDB records.
Regarding “MQNAESWFKKYWHLSVLVIAALISVKLRILNPWNSVFTWTVRLGGNDPWYYYRLIENTIHNFPHRIWFDPFTYYPYGSYTHFGPFLVYLGSIAGIIFSATSGESLRAVLAFIPAIGGVLAILPVYLLTREVFDKRAAVIAAFLIAIVPGQFLQRSILGFNDHHIWEAFWQVSALGTFLLAYNRWKGHDLSHNLTARQMAYPVIAGITIGLYVLSWGAGFIIAPIILAFMFFAFVLAGFVNADRKNLSLVAVVTFAVSALIYLPFAFNYPGFSTIFYSPFQLLVLLGSAVIAAAFYQIEKWNDVGFFERVGLGRKGMPLAVIVLTALIMGLFFVISPDFARNLLSVVRVVQPKGGALTIAEVYPFFFTHNGEFTLTNAVLHFGALFFFGMAGILYSAYRFLKRRSFPEMALLIWAIAMFIALWGQNRFAYYFAAVSAVYSALALSVVFDKLHLYRALENAIGARNKLSYFRVAFALLIALAAIYPTYILADAQSSYAGGPNKQWYDALTWMRENTPDGEKYDEYYLQLYPTPQSNKEPFSYPFETYGVISWWDYGHWIEAVAHRMPIANPFQAGIGNKYNNVPGASSFFTAENESYAEFVAEKLNVKYVVSDIEMETGKYYAMAVWAEGDLPLAEKYYGGYFYYSPTGTFGYANSQWDIPLNSIIIPLRIPSELYYSTMEAKLHLFDGSGLSHYRMIYESDYPAEWKSYSSQVNLNNESQVLQTALYEAVMRARYGVSPTMGTQEVLYKYAYTQLYEKKMGIPVKIAPSGYVKIFERVKGAVVTGKVSANVTEVSVNATIKTNQNRTFEYWQTVEVKNGTYTVVLPYSHNSDYPVKPITPYHIKAGNVVKEITIYESQVQNGEIIQLDL”, the protein production entry is listed as “failed”. For the sequence “MSIPLLEYKPSSQNQRVPGYEVPNEDTPRIYRIEDAAYDSELKELIWATYRQVFSEHVILKFFRQGNLESQLKNRAISVRDFVRGLAKSEAFKTLVIKSNSNYRLVELALKRLLGRAPYNKDEEIAWSIKIATNGWDGFVDALLDSEEYQSNFGENIVPYQRRRYKDRPFNLVTPRYGNYWRDKLESERYIEGDIKNFLELAKSIEIKTVTFTPVSTANIKIPDTTRNTTPTGIPISVNPSANFPVRLEHHHHHH”, the protein production result is reported as “failed”. Regarding “MTRLNELWELYFQTLDKSTSWTFTKESFYNRYLKEPLGKKKLDSIQEHHIMAIIRHLQAEGMATRTVNTTLEILRPLFDFAIKNKALRDNPTRFIVLKKDNLEHHHHHH”, the protein production entry is reported as “failed”. For “RRGWVREVTAEVWTGPLAPVADLAGDTGVVLSREADETWLARYQRKGVSEVALRVLESGPSVWFATVPGAEGADGAGGGGGVAAIGRCVVDGRWASFAAVEVDPAQRRRGLATAVMAALARRALDEGASAAWLQVETDNAGARALYAGMGFAAHHSYHHYREPAAAGTDR” the value was “failed”; for “PNRRADDNATIRVTNLSEDTRETDLQELFRPFGSISRIYLAKDKTTGQSKGFAFISFHRREDAARAIAGVSGFGYDHLILNVEWAKPSTN”, “not failed”. Take “MSDNALTSSRRFGGIARLYGDSALAHFSQAHVCVVGVGGVGSWAVEALARTGIGRLTLIDLDNVAESNVNRQLHALTGDFGKAKVTALRERITQINPQCEVFEIEDFVTEDNLPEYFGKGFDFVIDAIDQVRVKAAMAAYFVERKQPFVLSGGAGGQKNPALIQTADLSRVTHDPLLANLRYTLRKRYGFSRDTKANMRVPCVYSTENIVPPQSREACSADAAPQGLSCAGYGASMLVTASFGLYCAQAAVEHIADKKLEHHHHHH”: the protein production entry is “not failed”.

“MRNRLPPAWAKHLKTQPSVKVAMPKATLPKAQPNASPPRSQADDMLLRQALELQQAKRLPEAEELCLRVLARTPNHPLAYYILGTLGIGYDNEKALRYFARAVAEEPQNPYYHLSLGETYLKVSEFTPAIRHIQQALDLKPDLVEALCALGDAYNEFDKGELALPLFEKALKIDRYHPLARLGLPYALASLGRMDEAAVLLKEAIDRRIALPTAYGALVQTRNFTEEPPELESILAELRDPDLGSEDASALHHAAGKVLNDLGRYKEAMVHYKKGNQAGGHKFDLENYRRWIDAMIETFTPELFASRAAYGNPSDAPVFVVGMPRSGTTLTEQICASHPNVHGAGELGKLRRVANGIGLANRSNTNFAESIATFTPDLTRALAGEHLAYLRERAPDALRIVDKMPHNFELIGLIGILFPNARIIHCRRDAIDNCISCFVLRFNEAHSYSADLQTLGLYYREYDRLMRHWNKVLPGRIFENRYEALIENQEQQSRRLIDYLGLPWDDACLRFFDREGSVNTYSRWQVRQPIYTSSIKRWRNYESEIQSLIESLGDLAET”: the protein production result is listed as “failed”. For the sequence “MICKKLIQTILLGFAMCFYLLLGAGLNPTLAATLTQVESISQPRMQTLSEPRNLESGVDSFLTSIPAGYYTIATVEELKSLLKKSQPMLVDVREASEYRAGHIPNAINIPLRTLSQNLNQIPRTRPVVLYCSSGYRSAMGVMTLHLLGYENVQGFPPSFAGWKNAKEAMTYGRSKTIAS”, the protein production entry is given as “failed”. For “AIANSSVSTHGTGDCPVNCTKSEDFAPSKLGTKEYWDGAYKRELQTYKDIGDVGEIWFGEESMHRVIRWMEAQNISENAAILDIGTGNGMFLVELARHGFSNLTGIDYSKAALELTTNILVEEGLKNINIQVEDFLNPSTELKGFDVCIDKGTFDAISLNPEDREEAKKHYVTSLRAVMRPNGFFIITSCNWTKEQLLEIFKPGFELVRELPTPNFQFGGVTGNSVTALVFKQTD” the value was “failed”.

Turning to “MKGNFHSTYDQGFARVAACTTTVHIGDPASNVAGILDTCRELSSRSVAIAVFPELCLTGYAIDDLLLQDVVLDAVLDAIETVRQASRSLFPVIIVGAPLQRGNRLYNCAVVIHRGQVLGVVPKSHLPNYREFYEKRHFAVGAGTTGMIDLSGRQKSHAASTEIPFGPDQLFRATDLPDLTFHVEVCEDLWVPVAPSSQAALAGAVVEVNLSGSPITVGKSRQRHELCKVTSSRNLQAYVYAAAGPGESSTDLSWDGQTMIYENGSLLAATDRFSPEPGYCLADIDLDLLRQERLRQGSFDDNALAQPAQAPWRTTIFTLDPPHDDIGLERPVNRFPFVPNDPDQLAQDCYEAYNIQVYGLRRRLESMGSPKIVIGVSGGLDSTHALLVAAKAMDQMGRPRTDILAFTMPGFATTDHTKNNALDMCRALGIPCEVLDIRPAATQMLKGMSHPAGDGAEVYDVTFENVQAGLRYDYLFRIANQRGGIVLGTGDLSELALGWCTFGVGDQMSHYGVNTGVPKTLIQHLIRWCISSGQFNEATNVVLESVLGTEISPELVPARPGEKIQSTQAKIGPYELQDFTLYHLLRHGMRPSRIIFLSHHAWRDASVGSWPPGFRDEDRHSYDLSAIKDWTRLFLRRFVGNQFKRSTLPNGPKVVAGGSLSPRGDWRMPSDAVVRAWLDDLETVPDERF”, the protein production result is reported as “failed”. For “MIDFTKSKQYTLSIRLSTDGFSFSIYNPINDNSQSLFEKEVDTSLSLTANLKNVFHESDFLSYSYKRVNIMIASKRFTMIPLELFEEEQAELLFYHNHQKRENEIVMYNILKKNNVVIIFGIDKSTYTFLNEQYPEARFYSQSTPLIEYFSIKSRLGNSKKMYASVRKDAIDIYCFERGQLLLANSFECMQTEDRIYYLLYVWKQLEFNQERDELHLTGTLSDKETLMNELKKFILQVFIMNPANNIDMQALLTCE” the value was “not failed”. Then “MELFGSFAFFGGALFGGLGLLLYRALGLPWRLGYRHLIGALCLAVWLAVFWTRPYQPLGLLAVASAALWAMRRGYLPTWAAVLLTMAPLLLLKCGITTMTGMLGLSFATFRAVDVLLFAPRNERISPLDYCIYLFFPLTLLAGPMYRWRNFQADLKRGYEGVTLETWLAGLELLIFGVIQKFGVAEAIWRYGLNTLDAHDYSLTGVALNASLYSFYLFFDFAGYSSMAIGVGMLFGFTLPVNFRNPLASANPQDFWRRWHISLSEWLRDVVFMPIYKALSKTAFFGRHRLAAQNIGILATLLAMGVWNGLALHYVVSGLMFGAYSVGHNLLVQHARTRPALQAFLARRPVQWAGRALTLILAALALYVFSGRSPI”, with “failed”; and “MGNGLMSKKKKKKNNKYKKKRPNVSRNCDWSKFCSDVLRKIFETLKSPIDSHRAFARISIQFGKHARTSLHVHGDSYTKVILPPSGNCLLMVDRRLKFYILNLLTRTTINLPSMSLIRGGQVFFKPQNEWSNDSGCFFGPSRNGNVSYDFDSVEWKNSVAVLWINETTGDYVVAWTFIQHYLFFYKSGYWSWCNLNHNGKSLVVFDMACENNKLYLYTANHHIRIFDFSGAYPMEKKTENPYWKYLFNAVEEPWEYVWKRKIAIQKSSGEVLIILSLKQVFYEAERLLFYIFKMNLESFKWERVYSLGDEMLVFGQGVTIPTALKDLGDGIKSDSIYFVDKDVWPDHQDHDRRVSNCGVFNIATSKIKWPTKKYRSVNETQWFVLGVAY”, with “failed”.

Consider “MDVIKISPRGYCYGVVDAMVIAKNASLDKSLPRPIYILGMIVHNKHVTDAFEEEGILTLDGSNRLDILKQVDKGTVIFTAHGVSPEVRRIAEEKGLVAIDATCPDVTKTHNLILEMKEKGYHVIYIGKKGHPEPEGAVGVAPEIVHLVETEEDVKNLDIQSEKLIVTNQTTMSQWDVHDIMELVKEKYPHVEYHQEICLATQVRQEAVSEQAKKADLTIVVGDPKSNNSNRLAQVSEEIAGTKAYRIGDLSELKLEWLKGVNTVAVTAGASTPTPITKEVIRFLEQFDHE”, for which the protein production result is reported as “failed”. For “MSDPAIAVLPYGMKLGPALSGLPLDQVNWPLGCPERLVGKTLGDLGAGDHLLVYPRTGTHFQLSRGTRARISLIMAEPAVIHAKHYALLRVTWRRFHRVLTFNQAAVDRLPNARLLLFGSTWVPEWQSLTPEKVAQCSLIASAKRDSTGHKLRHAVVDWVRASDQDVAVLGRGYQPFDSKADGLAPYRYSVVIENVQERNYFSEKLLDAVFCETVPIYWGCPNIADFVDTTAMILCTREEDIRRAVAEMSAEDYAARLPALRALKQQLAPYAAHEARAARMILDELLEHHHHHH” the value was “not failed”; for “SGHFSALPSLPVGSHAKVSSPQPRGPRYAEGTFISDYSIAMDKIHQQDFVNWLLAQKGKKNDWKHNITQREARALELASQANRKEEEAVEPQSSPAKNPSDEDLLRDLLIQELLACLLDQTNLCRLRSR”, “failed”.

For “MKNNPLISIYMPTWNRQQLAIRAIKSVLRQDYSNWEMIIVDDCSTSWEQLQQYVTALNDPRITYIHNDINSGACAVRNQAIMLAQGEYITGIDDDDEWTPNRLSVFLAHKQQLVTHAFLYANDYVCQGEVYSQPASLPLYPKSPYSRRLFYKRNIIGNQVFTWAWRFKECLFDTELKAAQDYDIFLRMVVEYGEPWKVEEATQILHINHGEMQITSSPKKFSGYFHFYRKHKDKFDRASKKYQLFTLYQIRNKRMTWRTLLTLLSVRNGKRLADGIRGRLEHHHHHH”, the protein production result is reported as “not failed”.

Take “MENRKLAVLIDADNAQSSLIAELLAEVAKYGTAIVKRAYGDWTTTQLKGWKEVLHQYAISPIQQFAYTKGKNSTDSALIIDAMDLLYTGNFDGFCLVSSDSDFTRLATRLREGGLTVIGLGEQSKTPRPFIAACDKFVFTEILRPAPPAKPKPETAATADKPKARSSRTRAKAAPHKEKHPLQDMFTSAIEAVARDSGWAELSAVGSYLAKNDPSFDPRNWGHGRLSQMVKKLDFLTVQESRNGSKLHSEIRLRHDGEAAVAEPAAPVETPQPSPSEEAAPPPRKKRSPRKKISPAGLEHHHHHH”: the protein production entry is listed as “failed”. Then “MHSVHPTPKFSIITVTYNAEKVLEDTIQSVISQTYHHVEYIIVDGASKDGTLSIIDRYRPRITTVVSEPDKGLYDAMNKAISLASGDYLCFLNAGDCFHEDDTLQQMVHSIHGSVLPDVIYGETAIVDKDRHFLHMRRLSAPEKLDWKSFKQGMLVCHQAFFARHTLVEPYDLSYRYSADFDWCIRIMKKAYTLHNTHLTIIDYLDEGMTTQNRKASLKERFRIMAKHYGWISTAAHHAWFVLRLIIKPGQLEHHHHHH”, with “not failed”.
